{
  "source": "the DeepSol protein solubility set",
  "data": [
    {"assay": "soluble on expression in E. coli; label from the status in PepcDB or PDB records", "values": [
      {"sequence": "TGRGVKYWFCYGTKCYYFIMNKTTWSGCKANCQHYSVPIVKIEDEDELKFLQRHVIPEGYWIGLSYDKKKKEWAWIDNGPSKFDMKIRKMNFKSRGCVFLSKARIEDTDCNIPYYCICGKKLDKFPD", "soluble on expression in E. coli": "soluble"},
      {"sequence": "MGSDKIHHHHHHMTYELSTDREFDLIAIGRACIDLNAVEYNRPMEETMTFSKYVGGSPANIVIGSSKLGLKAGFIGKIADDQHGRFIESYMRGVGVDTSNLVVDQEGHKTGLAFTEIKSPEECSILMYRQDVADLYLSPEEVNEAYIRRSKLLLVSGTALSKSPSREAVLKAIRLAKRNDVKVVFELDYRPYSWETPEETAVYYSLVAEQSDIVIGTREEFDVLENRTEKGDNDETIRYLFKHSPELIVIKHGVEGSFAYTKAGEAYRGYAYKTKVLKTFGAGDSYASAFLYALISGKGIETALKYGSASASIVVSKHSSSDAMPSVEEIEALIEKDETITIA", "soluble on expression in E. coli": "not soluble"},
      {"sequence": "MGSDKIHHHHHHMDTLFTINACKTFGCRNLGLPSAAEYHFPNFRLGYPALYCAACGSYPPLFNEREFRPWLAAYLTDHARRYGYFCPVCYQRDIIRYGRNPQGTQRLQCRHCKKVWTPKFPHIAPIEAPRRICSVPLIAPFQGNAAGQKLYFLLSFDAVRGNVIHLTSNFTPFAVGESLRYRWRGGQADREETDDIIQRISLTEMRFLQRSQFDEIQYGSAMQKRHARGNILRPVIAAHGHFKLLSQRFPEVKTHVIAHECFLRGAAIVAWAPLFRQRQGDLWYVEEEIRNPASPAPWQLLGKTHHGWWQNSWQRWTQEENQKMVCRLAGTVEENAFLPDLAASRRFTIWLKNRPAFAQSALYSAGRVTQIVASLVQEYNATLTAAAPGG", "soluble on expression in E. coli": "not soluble"},
      {"sequence": "MTKAFDAFERAIRDAEDLLARHDAEKTVPNGHNGEVLKRAGLVMALAAWETYVKDRLQSEIDTWLQAVEGSPLGKFVRRRLEEDLKRFFNPNDERTRRIFIDYFDVDITKDWVWENYDSSTSKKVLDSLVAKRGDAAHKANTALHASAEPHKVKRDELEKGIRFLKGLVAATEKAKITK", "soluble on expression in E. coli": "not soluble"},
      {"sequence": "MSLERLIPIIAPQVPEKPLLNDSLGSGIGCSATLGRSTKFEDNFMCLKQDNVLFVGVFDGHAGHESALISAECFTKILPSFDFTNAIHQKNPEKDEENIQKFDFPKVENHLSPRRNHFRNVKTQENQIFGSQKIETKNIKNTQKIELKNSEKIELENSKGSENLNTKLIKTYLRMAFAQVNDELRNRKVKDGTTAVVVCLFENRKGAVAHVGDSLALLVGQTTSKLLTKMHRPSDKDEFYRMRKRNKSVSSDWKVDGKLSVSRSLGDFWCCGGMFDDADVSFFDLNDDALSIVLGCDGLWDYVDEGTVCNVVRELRDPVKAAKLLQDIAFASGSHDSISVIVVNVEPTEGHHHHHH", "soluble on expression in E. coli": "soluble"},
      {"sequence": "AVPETRPNHTIYINNLNEKIKKDELKKSLYAIFSQFGQILDILVSRSLKMRGQAFVIFKEVSSATNALRSMQGFPFYDKPMRIQYAKTDSDIIAKMKGTFVERDRKREKRKPKSQE", "soluble on expression in E. coli": "soluble"},
      {"sequence": "MTSIHSPVTRKEDTELKRPDLRGKFVCSSCSQNFQHSASLNRHRQLMHSNEHTCMMCERALNQKETIREHMRNEHNLAQVFTCGCCNWTFASKRQLTEHTKCIQGTGAPGDTIPIAKSINAPGSLIQSTIQGTPPVVKTGRKRPMGGSLSPSSSVSTSISSRDASGSPPPTEEEAERKVLFDNAVDTILQSKFFTYQQITEVDTWVKIIESANTLADTLQRIKKSQKVKAEGPAVESKMIPEKHVKQEIE", "soluble on expression in E. coli": "not soluble"},
      {"sequence": "MAHHHHHHMGGDVTFSLTKTRDTFADWFDAIMDAAELVDRRYPVKGCVVFRPYGFFMENAIMRLCEEEYAKVGISQILFPTVIPESFLKKESDHIKGFEAECFWVEKGGLQPLEERLALRPTSETAIYSMFSKWVRSYKDLPLKIHQTCTIFRHETKNTKPLIRVREIHWNEAHCCHATAEDAVSQLSDYWKVIDTIFSDELCFKGQKLRRVCWDRFPGADYSEVSDVVMPCGRVLQTAGIHNLGQRFSSTFDILYANKANESVHPYLTCAGISTRVLACALSIHGDSGGLVLPPLIAPIHVVIIPIGCGKKNNQESDQQVLGKVNEIADTLKSKLGLRVSIDDDFSKSMGDKLYYYELKGVPLRIEVGQRDLANGQCIVVPRDVGKDQKRVIPITEVMKVSSHTTENHELVVKNVIKDELDAYKARLKEKAFAFHNSMVTNCKSFDEIVACIENKGGLARFPFYTTEADGEVWDKKLKDACSAEIRGHNPDENVLPGEVCALSGKPAVCYMYCAKSY", "soluble on expression in E. coli": "soluble"},
      {"sequence": "MTSSPARNGDISFWYADIGGVPQPRPPLAGDARADVCIVGAGYTGLWTALYLKEQAPELEVLVLEKEFAGFGASGRNGGWLTGSFAWTHDRYLSTGTAEGVRAMVTAMSGTVDEVIRVAEAEGIDADIHRTDELMVAVTPAQRARAEAEVRHRQSWGEERVSFLEADAVARRIRIPKAEGAMVVGGVARVQPAKLVRGLAEAAERRGVRIAEGTEVLGIAPGRVETRRGTVQAPIILRATEGFTATLPGAKRDWLPLNSAQIVTEPLPPEIWDRIGWEGAEILGDMANAYCYCQRTREGRIAVGARGRAYRMASRIDERGEADAVTVAHLLKRLQRHFPAAADARIDHSWCGVLGVPRDWCATVGLDPTTGIGWAGGYVGVGVSTSNLAGRTLADLALKRDTALTRLPWVNRRVRRWEPEPLRWLGVRGMYRLLEAADRREEAGGPPSWLAALGHRIAGRLEHHHHHH", "soluble on expression in E. coli": "not soluble"},
      {"sequence": "MSTHEKLLTADNPVLHQRAKAMRQEMSEAEAKLWQHLRAGRLNGYKFRRQQPMGNYIVDFMCVTPKLIVEADGGQHAEQAVYDHARTAYLNSLGFTVLRFWNHEILQQTNDVLAEILRVLQELEKQYAQ", "soluble on expression in E. coli": "not soluble"},
      {"sequence": "MNVAIIGATGYSGAELFRLLHGHPHVSRCDVFSSSQDGVHVSESFPHVGSVDGAVLHKLEIEALSRYDAVFFATPPGVSGEWAPALVDRGVKVIDLSGDFRLKDGAVYEQWYGRQTAPAEYLQKAVYGLTEWNREAVREAVLLSNPGCYPTATLLGLAPLVKEGLIKEDSIIVDAKSGVSGAGRKAGLGTHFSEVNENVKIYKVNVHQHIPEIEQTLQTWNEAMEPITFSTHLIPMTRGIMATIYAKAKQSISPNDLVDLYKTSYEGSPFVRIRQLGQFPATKEVYGSNYCDIGLAYDERTGRVTVVSVIDNLMKGAAGQAVQNFNLMMGWDEAEGLQSLPIYP", "soluble on expression in E. coli": "not soluble"},
      {"sequence": "NFLLTQPHSVSESPGKTVTISCTRSSGSIANNYVHWYQQRPGSSPTTVIFEDDHRPSGVPDRFSGSVDTSSNSASLTISGLKTEDEADYYCQSYDHNNQVFGGGTKLTVLG", "soluble on expression in E. coli": "soluble"},
      {"sequence": "MVYNVLLSLPMMIQARWELLALLLGSGLIKQMDEVIFKEIMACASDQDLAARCSSVMLQISSNSDTCDKTAAIIFKGLTSPVAAVRSNVHRSWLCRIITLKNSQKCVETLLKLCKKSIKTTGNCSKILPISFRELPGLTCVDLQWRAILDEEPGDFSAFCYFSVLLSLKNASSQVHIQIPANDEFVLAELRNSGSLDVLKVCSKYKIYPEPLENWILEHFSPEMMEYIDFSMLKTFSAGFSQVFEEKKLEICQEKLEKFYPAEDLGRLNVHVDLSKEKLANETLEQFLQIQHESEEYPSVAGVMENLSKQNIDERLFCQKICLINDIMHEKYSILKEIRREMYTEFIFKIITRIPLRSVVDYVGATLKTEALQNPDFKNQIYQMSCQLLRLDKENARPLSLYHCFIGTCQQQDTTARISEIWAIIRGLKCDVKKRKMTEMLAKVVTSSEIQIDPSLLSDMTICSLGLHPTRFNTESTQLFVASISKLLDFRNESERIMLFQATANTPTLMDLISSILSRPSTDFSISGFQMILYFFTRFHIGSMEFYPYNHLLIITKIINFCHWSIRKFAKEPMILSISVDAICGFLPWSYLSEIALNGLEVENDPVEQLIAQNLKHNRFCVLLAEHDKQDTYLTIEDFEKLPKSEFIVEILRKKDAGNDSLNDLGQKLREITGKSMNFEEKHANLLACGILFEKSVEIMENAEKSKDLGQKWKNQYPPRGFLDNLMESFAATNSCINPEEIQNWWLEKCLGMMEIVRKKIIDFY", "soluble on expression in E. coli": "not soluble"},
      {"sequence": "MNIFNNVKKAEIHVHLEATITPSICKKFADRNNHEIPDDFFGSKYAYEWDDFYDFLKKYDIVTSVIHTPEDYYELTYEYLKECAANNVIYMEAMISSTHAKNKGMTYHSFIEGVYEASKKAEEDFGIVARYIMNGIRHLGPESVQNTAEEVLKNPHPCLVGFGLAGDELHFPPNLFVKTFDMLKEANFPITVHAGEWDGPENIRNAINLLHPTRLGHGVRSIEDPELVKEIIDKDIILETCPTSNIATKIYEDYESHPVKTLFNQGVKVTVNSDDPPFFMQLFQ", "soluble on expression in E. coli": "soluble"},
      {"sequence": "MSLKIKKSKLIGFVVADITNPFSVAAFRGVEEVCDQYGYSIMVCNTDNSPEKEREMLLKLEAHSVEGLILNATGENKDVLRAFAEQQIPTILIDRKLPDLKLDTVTTDNRWITKEILQKVYSKGYTDVALFTEPISSISPRAERAAVYQEMASVQNVNGLVRLHEIDVKDKEQLKAELRSFHKEMPEQKKAILALNGLIMLKIISCMEELGLRIPQDIGIAGFDDTEWYKLIGPGITTIAQPSHDMGRTAMERVLKRIEGDKGAPQTIELEAKVIMRKSLEGHHHHHH", "soluble on expression in E. coli": "soluble"},
      {"sequence": "MNGKARISIAIDGPAGAGKSTIAKIISKTLNILYLDTGAMYRAVALKAIRESVDTLNREQMSKLVENIDIKIAHSEDIQRIFLDGEDVTDFIRTPEVSIGASNVATVPAVRLKMVELQREIAKKNSVVMDGRDIGTYVLPDATLKFFLTASVEARAIRRYNELLSKGITQITLEDVKKDIEYRDKNDSNREFAPLSKAPDAIEIDTTDLTIEQVVNKIMEYAKDYVC", "soluble on expression in E. coli": "soluble"},
      {"sequence": "MKQVKIMFLMTMFLGIGLLFFSENAEAAITSNEIGTHDGYDYEFWKDSGGSGSMTLNSGGTFSAQWSNVNNILFRKGKKFDETQTHQQIGNMSINYGATYNPNGNSYLTVYGWTVDPLVEFYIVDSWGTWRPPGGTPKGTINVDGGTYQIYETTRYNQPSIKGTATFQQYWSVRTSKRTSGTISVSEHFRAWESLGMNMGNMYEVALTVEGYQSSGSANVYSNTLTIGGQSGGEQATRVEAESMTKGGPYTSNITSPFNGVALYANGDNVSFNHSFTKANSSFSLRGASNNSNMARVDLRIGGQNRGTFYFGDQYPAVYTINNINHGIGNQLVELIVTADDGTWDAYLDYLEIR", "soluble on expression in E. coli": "soluble"},
      {"sequence": "MGSDKIHHHHHHMAETIETMGGQAALDHVSRLLSLKVDIRGLEHLPAEGRVVIVANHPTGIGDGVAVYDALKTHRPDIVFYANADAHRVCPRFDDVLIPVEWVEEKRSRERMRLTLSMTREAMEAERALMIFPAGRLAVTDAEGRLSDPPWMSSAVSIARKYGAPIAPIHLEGPWSTLFHLFGRLSRELRDITLFHELLNKTGRRFSLTIGPPVDPEALPRDAEQATEVLKRYVERQLPNEPTSPLT", "soluble on expression in E. coli": "not soluble"}
    ]}
  ]
}
